# T1: FcgRIIa R (human, UniProt P12318 34-217)
# T1 construct: extracellular domain; also called FcγRIIa R; FcγRIIa type R
# T1 sequence (looked up): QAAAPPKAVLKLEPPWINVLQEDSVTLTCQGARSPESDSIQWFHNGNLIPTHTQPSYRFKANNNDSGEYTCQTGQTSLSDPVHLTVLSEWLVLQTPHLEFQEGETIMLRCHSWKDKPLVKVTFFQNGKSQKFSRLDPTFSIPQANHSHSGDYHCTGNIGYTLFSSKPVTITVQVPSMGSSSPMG
# T2: FcgRIIa H (human, UniProt P12318 34-217)
# T2 construct: extracellular domain; also called FcγRIIa H; FcγRIIa type H
# T2 sequence (looked up): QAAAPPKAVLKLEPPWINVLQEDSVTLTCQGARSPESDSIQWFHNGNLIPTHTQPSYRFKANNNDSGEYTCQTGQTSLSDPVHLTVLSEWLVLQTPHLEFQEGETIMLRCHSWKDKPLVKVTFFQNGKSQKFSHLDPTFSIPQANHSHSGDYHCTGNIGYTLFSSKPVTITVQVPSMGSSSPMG
# T3: FcgRIIb (human, UniProt P31994 43-217)
# T3 construct: extracellular domain; also called FcγRIIb; CD32B
# T3 sequence (looked up): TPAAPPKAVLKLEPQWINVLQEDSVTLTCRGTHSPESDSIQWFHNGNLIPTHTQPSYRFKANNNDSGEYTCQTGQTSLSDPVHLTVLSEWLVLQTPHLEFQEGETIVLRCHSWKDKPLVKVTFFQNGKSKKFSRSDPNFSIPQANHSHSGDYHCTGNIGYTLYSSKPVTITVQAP
# T4: FcgRIIaR (human, UniProt P12318 34-217)
# T4 construct: extracellular domain; Allotype R131; also called FcγRIIa R; FcgRIIa type R; not shown: His tag attached to the C terminus
# T4 sequence (looked up): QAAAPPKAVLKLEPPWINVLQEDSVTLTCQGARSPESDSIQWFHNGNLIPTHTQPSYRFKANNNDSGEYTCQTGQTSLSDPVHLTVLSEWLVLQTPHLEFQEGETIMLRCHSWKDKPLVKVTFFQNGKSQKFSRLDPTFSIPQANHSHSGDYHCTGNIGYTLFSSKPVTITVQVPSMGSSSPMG
# T5: FcgRIIaH (human, UniProt P12318 34-217)
# T5 construct: extracellular domain; Allotype H131; also called FcγRIIa H; FcgRIIa type H; not shown: His tag attached to the C terminus
# T5 sequence (looked up): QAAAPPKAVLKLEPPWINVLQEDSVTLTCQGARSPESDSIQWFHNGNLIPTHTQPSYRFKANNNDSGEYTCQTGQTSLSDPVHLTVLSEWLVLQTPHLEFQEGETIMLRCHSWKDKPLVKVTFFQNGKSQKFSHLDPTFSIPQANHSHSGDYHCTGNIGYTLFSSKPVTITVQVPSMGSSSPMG
# T6: FcgRIIb (human, UniProt P31994 43-217)
# T6 construct: extracellular domain; also called FcγRIIb; CD32B; not shown: His tag attached to the C terminus
# T6 sequence (looked up): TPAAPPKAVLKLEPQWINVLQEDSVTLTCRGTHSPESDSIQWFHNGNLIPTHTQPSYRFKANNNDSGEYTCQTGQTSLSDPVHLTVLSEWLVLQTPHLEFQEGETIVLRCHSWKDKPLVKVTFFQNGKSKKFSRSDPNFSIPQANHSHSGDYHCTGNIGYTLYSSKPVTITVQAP
# What was measured:
# FcgRIa = target: T7, FcgRIa (human, UniProt P12314 16-292); test: SPR (Biacore), antibody captured, FcgR as analyte
# T7 construct: extracellular domain; also called FcγRIa; FcγRI
# Protocol: (§1) Analysis of interaction between objective antibody and the FcγR was carried out using Biacore T100 (GE Healthcare), Biacore T200, Biacore A100, and Biacore 4000. HBS-EP+ (GE Healthcare) was used as the running buffer, and the measurement temperature was set to 25° C. Chips produced by immobilizing the antigen peptide by the amine coupling method to a Series S sensor Chip CM5 (GE Healthcare), chips produced by allowing preliminarily biotinylated antigen peptides to interact with and immobilize onto a Series S Sensor Chip SA (certified) (GE Healthcare), chips produced by immobilizing Protein L (ACTIGEN, BioVision) to Series S Sencor Chip CM5 (GE Healthcare), or chips produced by immobilizing Protein A/G (Thermo Scientific) to Series S Sencor Chip CM5 (GE Healthcare) were used. Antibodies of interest were captured onto these chips, and allowed to interact to each FcγR diluted with running buffer. To regenerate and repeatedly use the chip, the antibodies captured onto the chip were washed off by reacting 10 mM glycine-HCl, pH 1.5.
# FcgRIIa R = target: T1, FcgRIIa R; test: SPR (Biacore), antibody captured, FcgR as analyte
# Protocol: as §1
# FcgRIIa H = target: T2, FcgRIIa H; test: SPR (Biacore), antibody captured, FcgR as analyte
# Protocol: as §1
# FcgRIIb [1] = target: T3, FcgRIIb; test: SPR (Biacore), antibody captured, FcgR as analyte
# Protocol: as §1
# FcgRIIIa F = target: T8, FcgRIIIa F (human, UniProt P08637 17-208); test: SPR (Biacore), antibody captured, FcgR as analyte
# T8 construct: extracellular domain; polymorphic site made after J. Clin. Invest; also called FcγRIIIa F
# Protocol: as §1
# FcgRIIIa V = target: T9, FcgRIIIa V (human, UniProt P08637 17-208); test: SPR (Biacore), antibody captured, FcgR as analyte
# T9 construct: extracellular domain; polymorphic site made after J. Clin. Invest; also called FcγRIIIa V
# Protocol: as §1
# FcgRIIaR = target: T4, FcgRIIaR; test: SPR (Biacore); KD of IL6R-B3/IL6R-L divided by KD of the sample
# FcgRIIaH = target: T5, FcgRIIaH; test: as above
# FcgRIIb [2] = target: T6, FcgRIIb; test: as above
# T8 sequence (P08637 17-208): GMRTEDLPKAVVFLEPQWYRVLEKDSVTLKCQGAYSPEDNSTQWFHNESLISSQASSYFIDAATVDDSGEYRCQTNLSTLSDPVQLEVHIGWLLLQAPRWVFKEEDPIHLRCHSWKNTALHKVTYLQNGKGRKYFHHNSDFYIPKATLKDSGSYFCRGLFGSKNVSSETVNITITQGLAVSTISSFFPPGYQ
# T9 sequence (P08637 17-208 F176V limits assumed): as the sequence (P08637 17-208) above, with F160V counted along it
# T7 sequence (P12314 16-292): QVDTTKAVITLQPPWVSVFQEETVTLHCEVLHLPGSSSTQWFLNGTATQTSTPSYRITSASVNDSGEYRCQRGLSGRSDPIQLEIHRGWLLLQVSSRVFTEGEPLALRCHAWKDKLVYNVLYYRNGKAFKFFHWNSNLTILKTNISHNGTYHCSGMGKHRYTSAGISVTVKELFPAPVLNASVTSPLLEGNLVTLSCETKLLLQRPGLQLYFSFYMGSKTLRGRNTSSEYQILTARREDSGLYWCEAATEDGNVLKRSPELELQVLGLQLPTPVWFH
Binder,Kd (FcgRIa) [nM],Kd (FcgRIIa R) [nM],Kd (FcgRIIa H) [nM],Kd (FcgRIIb [1]) [nM],Kd (FcgRIIIa F) [nM],Kd (FcgRIIIa V) [nM],relative KD (FcgRIIaR),relative KD (FcgRIIaH),relative KD (FcgRIIb [2])
"H240-Kn061/H240-Hl071/L73-k0 (antibody, human IgG1, kappa, Heterodimerized: L234Y/L235Y/G236W/H268D/S298A in the knob chain, K326D/A330M/K334E in the hole chain) heavy 1: QDQLVQSGAEVKKPGASVKVSCKASGFNIKDTYIQWVRQAPGQGLEWMGRIDPLRKQTKYREKFEGRVTITADTSTNTAYMELSSLRSEDTAVYYCVRSGREFDYWGQGTLVTVSSASTKGPSVFPLAPSSKSTSGGTAALGCLVKDYFPEPVTVSWNSGALTSGVHTFPAVLQSSGLYSLSSVVTVPSSSLGTQTYICNVNHKPSNTKVDKKVEPKSCDKTHTCPPCPAPEYYWGPSVFLFPPKPKDTLMISRTPEVTCVVVDVSDEDPEVKFNWYVDGVEVHNAKTKPREEQYNATYRVVSVLTVLHQDWLNGKEYKCKVSNKALPAPIEKTISKAKGQPREPQVCTLPPSRDELTKNQVSLWCLVKGFYPSDIAVEWESNGQPENNYKTTPPVLDSDGSFFLYSKLTVDKSRWQQGNVFSCSVMHEALHNHYTQKSLSLSP heavy 2: QDQLVQSGAEVKKPGASVKVSCKASGFNIKDTYIQWVRQAPGQGLEWMGRIDPLRKQTKYREKFEGRVTITADTSTNTAYMELSSLRSEDTAVYYCVRSGREFDYWGQGTLVTVSSASTKGPSVFPLAPSSKSTSGGTAALGCLVKDYFPEPVTVSWNSGALTSGVHTFPAVLQSSGLYSLSSVVTVPSSSLGTQTYICNVNHKPSNTKVDKKVEPKSCDKTHTCPPCPAPELLGGPSVFLFPPKPKDTLMISRTPEVTCVVVDVSHEDPEVKFNWYVDGVEVHNAKTKPREEQYNSTYRVVSVLTVLHQDWLNGKEYKCKVSNDALPMPIEETISKAKGQPREPQVYTLPPSRCELTKNQVSLSCAVKGFYPSDIAVEWESNGQPENNYKTTPPVLDSDGSFFLVSKLTVDKSRWQQGNVFSCSVMHEALHNHYTQKSLSLSP light: DIQMTQSPSSLSASVGDRVTITCRASQDIHKYIAWYQQKPGQAPRLLIQYTSTLQPGVPSRFSGSGSGTDYTFTISSLQPEDIATYYCLQYEQLRTFGGGTKVEIKRTVAAPSVFIFPPSDEQLKSGTASVVCLLNNFYPREAKVQWKVDNALQSGNSQESVTEQDSKDSTYSLSSTLTLSKADYEKHKVYACEVTHQGLSSPVTKSFNRGEC",0.14,350,280,1200,5.1,1.8,,,
"IL6R-BP253/IL6R-L (antibody, human IgG1, kappa, Homodimer) heavy: QVQLQESGPGLVKPSETLSLTCAVSGHSISHDHAWSWVRQPPGEGLEWIGFISYSGITNYNPSLQGRVTISRDNSKNTLYLQMNSLRAEDTAVYYCARSLARTTAMDYWGEGTLVTVSSASTKGPSVFPLAPSSKSTSGGTAALGCLVKDYFPEPVTVSWNSGALTSGVHTFPAVLQSSGLYSLSSVVTVPSSSLGTQTYICNVNHKPSNTKVDKKVEPKSCDKTHTCPPCPAPELLGGPSVFLFPPKPKDTLMISRTPEVTCVVVDVEHEDPEVKFNWYVDGVEVHNAKTKPREEQYNSTYRVVSVLTVLHQDWLNGKEYKCKVSNKAFPAPIEKTISKAKGQPREPQVYTLPPSRDELTKNQVSLTCLVKGFYPSDIAVEWESNGQPENNYKTTPPVLDSDGSFFLYSKLTVDKSRWQQGNVFSCSVMHEALHNHYTQESLSLSP light: not shown",,,,,,,480,0.9,349
